# From patent US20230014722A1 (CSTONE PHARMACEUTICALS, published 2023)
# T1: mouse PD-1 on transfected 293F cells (mouse, UniProt Q02242 25-288)
# T1 construct: whole, on cells; also called cell surface mouse PD-1
# T1 sequence (looked up): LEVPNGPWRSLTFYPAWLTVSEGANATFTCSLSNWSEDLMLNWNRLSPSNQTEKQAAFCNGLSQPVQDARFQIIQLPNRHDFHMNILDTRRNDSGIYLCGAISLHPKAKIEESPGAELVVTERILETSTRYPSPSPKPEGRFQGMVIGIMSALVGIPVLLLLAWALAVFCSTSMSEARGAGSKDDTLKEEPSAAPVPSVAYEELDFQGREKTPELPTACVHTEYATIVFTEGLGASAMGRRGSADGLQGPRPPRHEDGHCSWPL
# T2: mouse PD-1 antigen protein of the affinity-maturation screen (mouse, UniProt Q02242 25-167, limits assumed, biotinylated)
# T2 sequence (looked up): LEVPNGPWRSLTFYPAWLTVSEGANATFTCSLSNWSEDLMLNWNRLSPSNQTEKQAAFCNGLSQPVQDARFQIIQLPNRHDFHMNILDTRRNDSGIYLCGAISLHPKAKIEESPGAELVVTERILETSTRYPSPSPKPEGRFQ
# T3: mouse PD-1 (Sino Biological), coated on plates (mouse, UniProt Q02242 25-167)
# T3 sequence (looked up): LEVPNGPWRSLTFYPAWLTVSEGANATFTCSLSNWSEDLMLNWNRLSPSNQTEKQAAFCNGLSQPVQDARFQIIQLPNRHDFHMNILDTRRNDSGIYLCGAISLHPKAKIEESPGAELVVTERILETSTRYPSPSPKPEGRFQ
# T4: mPD-1.His (mouse, UniProt Q02242 25-167, limits assumed)
# T4 construct: Soluble analyte, probably the extracellular domain; also called mouse PD-1 (SPR analyte)
# T4 sequence (looked up): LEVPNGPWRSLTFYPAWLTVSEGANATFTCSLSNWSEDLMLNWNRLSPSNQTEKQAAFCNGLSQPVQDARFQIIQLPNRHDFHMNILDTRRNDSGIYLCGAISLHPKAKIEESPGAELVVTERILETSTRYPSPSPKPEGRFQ
# Columns and labels:
# [1] = biological target: T1, mouse PD-1 on transfected 293F cells; test: FACS, mouse PD-1 transfected 293F cells
# [2] = biological target: T5, human PD-1 on transfected cells (human, UniProt Q15116 25-288); test: FACS, human PD-1 transfected CHO-S cells
# T5 construct: also called CHO-S cells expressing human PD-1; human PD-1 transfected CHO-S cells
# T5 sequence (Q15116 25-288 limits assumed): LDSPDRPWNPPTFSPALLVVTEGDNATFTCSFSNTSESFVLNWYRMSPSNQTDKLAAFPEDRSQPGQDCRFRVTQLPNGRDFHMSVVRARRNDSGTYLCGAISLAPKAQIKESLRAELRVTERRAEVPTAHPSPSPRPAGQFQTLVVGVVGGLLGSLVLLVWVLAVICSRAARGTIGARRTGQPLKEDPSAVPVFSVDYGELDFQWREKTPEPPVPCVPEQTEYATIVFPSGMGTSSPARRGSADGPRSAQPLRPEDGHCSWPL
# [3] = biological target: T5, human PD-1 on transfected cells; test: FACS blocking assay: mouse Fc fusion-human PD-L1 binding to human PD-1 transfected CHO-S cells
# [4] = biological target: cynomolgus PD-1 (Sino Biological), coated on plates (cynomolgus, UniProt B0LAJ3 25-170); test: ELISA, plates coated with cynomolgus PD-1 at 1 µg/ml
# cynomolgus PD-1 (Sino Biological), coated on plates, sequence (B0LAJ3 entry or part of it limits assumed): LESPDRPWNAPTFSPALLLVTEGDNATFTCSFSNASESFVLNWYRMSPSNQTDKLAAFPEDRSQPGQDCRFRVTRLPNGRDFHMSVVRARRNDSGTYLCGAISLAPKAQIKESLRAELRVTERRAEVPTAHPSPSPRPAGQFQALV
# Description: (§1) For ELISA, plates (Nunc) were coated with human, cynomolgus or mouse PD-1 (Sino Biological) at 1 μg/ml overnight at 4° C. After blocking and washing, antibodies were serially diluted in blocking buffer and added to the plates and incubated at room temperature for 1 h. The plates were then washed and subsequently incubated with secondary antibody goat anti human IgG HRP (Bethyl) for 1 h. After washing, TMB substrate was added and the reaction was stopped by 2 M HCl. The absorbance at 450 nm was read using a microplate reader (Molecular Device).
# [5] = biological target: T6, human PD-1 (Sino Biological), coated on plates (human, UniProt Q15116 25-167); test: ELISA, plates coated with human PD-1 at 1 µg/ml
# T6 construct: whole entry named
# T6 sequence (Q15116 25-167 limits assumed): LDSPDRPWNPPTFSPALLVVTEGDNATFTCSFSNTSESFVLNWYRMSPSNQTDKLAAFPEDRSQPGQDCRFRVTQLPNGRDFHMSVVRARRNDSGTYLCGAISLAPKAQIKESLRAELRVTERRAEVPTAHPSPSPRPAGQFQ
# Description: as §1
# [6] = biological target: T5, human PD-1 on transfected cells; test: flow cytometry on CHO-S cells expressing human PD-1, quantitative beads
# Description: (§2) Testing antibodies were 1:2 serially diluted in wash buffer (1×PBS/1% BSA) and incubated with cells at 4° C. for 1 h.
# [7] = biological target: T5, human PD-1 on transfected cells; test: FACS competition on CHO-S cells expressing human PD-1 against biotinylated WBP305BMK1 at 1 µg/ml
# Description: (§3) The cells were washed and the second antibody Streptavidin-PE were added and incubated for 30 min at 4° C. The cells were then washed once and resuspended in 1×PBS/1% BSA, and analyzed by flow cytometery (BD).
# [8] = biological target: T7, human CTLA-4 on a constructed cell line (human, UniProt P16410 36-223); test: FACS, CTLA-4.293F cells, one antibody concentration (not given)
# T7 construct: whole, on cells
# T7 sequence (P16410 36-223): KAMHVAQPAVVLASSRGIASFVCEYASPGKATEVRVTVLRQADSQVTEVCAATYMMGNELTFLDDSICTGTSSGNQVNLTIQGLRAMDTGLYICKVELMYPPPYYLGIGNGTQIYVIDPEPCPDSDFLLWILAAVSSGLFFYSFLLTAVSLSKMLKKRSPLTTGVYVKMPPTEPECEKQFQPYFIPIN
# Description: (§4) Constructed cell lines that respectively express human PD-1, CD28, CTLA-4 or ICOS were transferred in to 96-well U-bottom plates (BD) at a density of 2×10⁵ cells/well. Testing antibodies were diluted in wash buffer (1×PBS/1% BSA) and incubated with cells at 4° C. for 1 h. After washing, the secondary antibody goat anti-human IgG Fc FITC (Jackson ImmunoResearch Lab) was added and incubated at 4° C. in the dark for 1 h. The cells were then washed once and resuspended in 1×PBS/1% BSA, and analyzed by flow cytometery (BD) and FlowJo software.
# [9] = biological target: T1, mouse PD-1 on transfected 293F cells; test: FACS blocking assay: mouse Fc fusion-mouse PD-L1 binding to mouse PD-1 transfected 293F cells
# [10] = biological target: T1, mouse PD-1 on transfected 293F cells; test: flow cytometry on 293F cells expressing mouse PD-1, quantitative beads
# Description: as §2
# [11] = biological target: T5, human PD-1 on transfected cells; test: FACS competition on CHO-S cells expressing human PD-1 against biotinylated Keytruda at 1 µg/ml
# Description: as §3
# [12] = biological target: T8, human CD28 on a constructed cell line (human, UniProt P10747 19-220); test: FACS, CD28.CHO-K1 cells, one antibody concentration (not given)
# T8 construct: whole, on cells
# Description: as §4
# [13] = biological target: cynomolgus PD-1 antigen protein of the affinity-maturation screen (cynomolgus); test: capture ELISA, second-round affinity-maturation screen (scFv format likely); unit not given
# [14] = biological target: T2, mouse PD-1 antigen protein of the …; test: as above
# [15] = biological target: human PD-1 antigen protein of the affinity-maturation screen (human, UniProt Q15116 25-167, limits assumed, biotinylated); test: as above
# human PD-1 antigen protein of the affinity-maturation screen, sequence (Q15116 25-167 limits assumed): as the sequence (Q15116 25-167 limits assumed) above
# [16] = biological target: T3, mouse PD-1 (Sino Biological), coated on …; test: ELISA, plates coated with mouse PD-1 at 1 µg/ml
# Description: as §1
# [17] = biological target: T9, hPD-1.His (human, UniProt Q15116 25-170); test: SPR (ProteOn XPR36), antibody captured on Protein A, PD-1.His as analyte, 1:1 fit
# T9 construct: the SPR text says only human PD-1; also called human PD-1 (SPR analyte)
# T9 sequence (Q15116 25-170): as the sequence (B0LAJ3 entry or part of it limits assumed) above, with E2D, A10P, L19V, A35T, R75Q, A144T counted along it
# Text: (§5) Antibodies were characterized for affinity and binding kinetics to PD-1 by SPR assay using ProteOn XPR36 (Bio-Rad). Protein A protein (Sigma) was immobilized to a GLM sensor chip (Bio-Rad) through amine coupling. Purified antibodies were flowed over the sensor chip and captured by the Protein A. The chip was rotated […] and washed with running buffer (1×PBS/0.01% Tween20, Bio-Rad) until the baseline was stable. Seven concentrations of human PD-1 and running buffer were flowed through the sensor chip at a flow rate of 30 μL/min for an association phase of 180 s, followed by 300s dissociation. After regeneration, seven concentration of mouse PD-1 and running buffer were flowed through the sensor chip at a flow rate of 30 μL/min for an association phase of 180 s, followed by 300 s dissociation. The chip was regenerated with pH 1.5 H₃PO₄ after each run. The association and dissociation curve was fit by 1:1 Langmuir binding model using ProteOn software.
# [18] = biological target: T4, mPD-1.His; test: as above
# Text: as §5
binder,measurement,setting,value
"2E5 (antibody, human IgG4, V domains shown) VH: QVQLVQSGAEVKKPGSSVKVSCKASGFTFTTYYISWVRQAPGQGLEYLGYINMGSGGTNYNEKFKGRVTITADKSTSTAYMELSSLRSEDTAVYYCAIIGYFDYWGQGTMVTVSS VL: DVVMTQSPLSLPVTLGQPASISCRSSQSLLDSDGGTYLYWFQQRPGQSPRRLIYLVSTLGSGVPDRFSGSGSGTDFTLKISRVEAEDVGVYYCMQLTHWPYTFGQGTKLEIK",EC50,[1],12.9 nM
same,EC50,[2],2.2 nM
same,IC50,[3],2.14 nM
same,EC50,[4],0.25 nM
same,EC50,[5],0.18 nM
same,Kd,[6],0.23 nM
same,IC50,[7],5.84 nM
same,binding result,[8],no binding
same,IC50,[9],13 nM
same,Kd,[10],29 nM
same,IC50,[11],9.52 nM
same,binding result,[12],no binding
same,Bmax,[13],1.72
same,Bmax,[14],0.47
same,Bmax,[15],3.28
same,EC50,[16],0.37 nM
same,Kd,[17],6.13 nM
same,koff,[17],0.00366 s⁻¹
same,kon,[17],597000 M⁻¹ s⁻¹
same,Kd,[18],3.99 nM
same,koff,[18],0.00129 s⁻¹
same,kon,[18],323000 M⁻¹ s⁻¹
"2B1 (antibody, V domains shown) VH: QVQLVQSGAEVKKPGSSVKVSCKASGFTFTTYYISWVRQAPGQGLEYLGYINMGSGGTNYNEKFKGRVTITADKSTSTAYMELSSLRSEDTAVYYCAIIGYFDYWGQGTMVTVSS VL: DVVMTQSPLSLPVTLGQPASISCRSSQSLLDSDGNTYLYWFQQRPGQSPRRLIYLVSTLGSGVPDRFSGSGSGTDFTLKISRVEAEDVGVYYCMQLTHWPYTFGQGTKLEIK",Bmax,[13],1.21
same,Bmax,[14],0.339
same,Bmax,[15],3.02
"8C10 (antibody, V domains shown) VH: QVQLVQSGAEVKKPGSSVKVSCKASGFTFTTYYISWVRQAPGQGLEYLGYINMGSGGTNYNEKFKGRVTITADKSTSTAYMELSSLRSEDTAVYYCAIIGYFDYWGQGTMVTVSS VL: DVVMTQSPLSLPVTLGQPASISCRSSQSLLDSDGQTYLYWFQQRPGQSPRRLIYLVSTLGSGVPDRFSGSGSGTDFTLKISRVEAEDVGVYYCMQLTHENYTFGQGTKLEIK",Bmax,[13],1.11
same,Bmax,[14],0.437
same,Bmax,[15],2.31
"A6W (antibody, V domains shown) VH: QVQLVQSGAEVKKPGSSVKVSCKASGFTFTTYYISWVRQAPGQGLEYLGYINMGSGGTNYNEKFKGRVTITADKSTSTAYMELSSLRSEDTAVYYCAILGYFDYWGQGTMVTVSS VL: DVVMTQSPLSLPVTLGQPASISCRSSQSLLDSDGNTYLYWFQQRPGQSPRRLIYLVSTLGSGVPDRFSGSGSGTDFTLKISRVEAEDVGVYYCMQLTHWPYTFGQGTKLEIK",Bmax,[13],0.0787
same,Bmax,[14],0.174
same,Bmax,[15],2.57
"5C4 (antibody, V domains shown) VH: QVQLVQSGAEVKKPGSSVKVSCKASGFTFTTYYISWVRQAPGQGLEYLGYINMGSGGTNYNEKFKGRVTITADKSTSTAYMELSSLRSEDTAVYYCAILGYFDYWGQGTMVTVSS VL: DVVMTQSPLSLPVTLGQPASISCRSSQSLLDSDGQTYLYWFQQRPGQSPRRLIYLVSTLGSGVPDRFSGSGSGTDFTLKISRVEAEDVGVYYCMQLTHEPYTFGQGTKLEIK",Bmax,[13],0.258
same,Bmax,[14],0.164
same,Bmax,[15],2.65
"1H6 (antibody, human IgG4, V domains shown) VH: QVQLVQSGAEVKKPGSSVKVSCKASGFTFTTYYISWVRQAPGQGLEYLGYINMGSGGTNYNEKFKGRVTITADKSTSTAYMELSSLRSEDTAVYYCAILGYFDYWGQGTMVTVSS VL: DVVMTQSPLSLPVTLGQPASISCRSSQSLLDSDGGTYLYWFQQRPGQSPRRLIYLVSTLGSGVPDRFSGSGSGTDFTLKISRVEAEDVGVYYCMQLTHWPYTFGQGTKLEIK",EC50,[1],15.1 nM
same,EC50,[2],2.64 nM
same,IC50,[3],2.22 nM
same,EC50,[4],0.28 nM
same,EC50,[5],0.2 nM
same,Kd,[6],0.215 nM
same,IC50,[7],8.77 nM
same,binding result,[8],no binding
same,IC50,[9],20.4 nM
same,Kd,[10],53.9 nM
same,IC50,[11],17.6 nM
same,binding result,[12],no binding
same,Bmax,[13],0.317
same,Bmax,[14],0.221
same,Bmax,[15],3.35
same,EC50,[16],0.34 nM
same,Kd,[17],14.3 nM
same,koff,[17],0.00918 s⁻¹
same,kon,[17],644000 M⁻¹ s⁻¹
same,Kd,[18],9.37 nM
same,koff,[18],0.003 s⁻¹
same,kon,[18],320000 M⁻¹ s⁻¹
"1G10 (antibody, V domains shown) VH: QVQLVQSGAEVKKPGSSVKVSCKASGFTFTTYYISWVRQAPGQGLEYLGYINMGSGGTNYNEKFKGRVTITADKSTSTAYMELSSLRSEDTAVYYCAILGYFDYWGQGTMVTVSS VL: DVVMTQSPLSLPVTLGQPASISCRSSQSLLDSDGATYLYWFQQRPGQSPRRLIYLVSTLGSGVPDRFSGSGSGTDFTLKISRVEAEDVGVYYCMQLTHWPYTFGQGTKLEIK",Bmax,[13],1.08
same,Bmax,[14],0.3
same,Bmax,[15],2.6
"L1I (antibody, V domains shown, also called L11) VH: QVQLVQSGAEVKKPGSSVKVSCKASGFTFTTYYISWVRQAPGQGLEYLGYINMGSGGTNYNEKFKGRVTITADKSTSTAYMELSSLRSEDTAVYYCAIIGYFDYWGQGTMVTVSS VL: DVVMTQSPLSLPVTLGQPASISCRSSQSLLDSDGNTYLYWFQQRPGQSPRRLIYLVSTLGSGVPDRFSGSGSGTDFTLKISRVEAEDVGVYYCMQLTHAPYTFGQGTKLEIK",Bmax,[13],0.0517
same,Bmax,[15],1.05
